B1: Serotonin N-acetyltransferase (Homo sapiens), Q16613 (parent)
chain: MSTQSTHPLKPEAPRLPPGIPESPSCQRRHTLPASEFRCLTPEDAVSAFEIEREAFISVLGVCPLYLDEIRHFLTLCPELSLGWFEEGCLVAFIIGSLWDKERLMQESLTLHRSGGHIAHLHVLAVHRAFRQQGRGPILLWRYLHHLGSQPAVRRAALMCEDALVPFYERFSFHAVGPCAITVGSLTFMELHCSLRGHPFLRRNSGC
B2: Emerin (Homo sapiens), P50402 (parent)
chain: MDNYADLSDTELTTLLRRYNIPHGPVVGSTRRLYEKKIFEYETQRRRLSPPSSSAASSYSFSDLNSTRGDADMYDLPKKEDALLYQSKGYNDDYYEESYFTTRTYGEPESAGPSRAVRQSVTSFPDADAFHHQVHDDDLLSSSEEECKDRERPMYGRDSAYQSITHYRPVSASRSSLDLSYYPTSSSTSFMSSSSSSSSWLTRRAIRPENRAPGAGLGQDRQVPLWGQLLLFLVFVIVLFFIYHFMQAEEGNPF
partner: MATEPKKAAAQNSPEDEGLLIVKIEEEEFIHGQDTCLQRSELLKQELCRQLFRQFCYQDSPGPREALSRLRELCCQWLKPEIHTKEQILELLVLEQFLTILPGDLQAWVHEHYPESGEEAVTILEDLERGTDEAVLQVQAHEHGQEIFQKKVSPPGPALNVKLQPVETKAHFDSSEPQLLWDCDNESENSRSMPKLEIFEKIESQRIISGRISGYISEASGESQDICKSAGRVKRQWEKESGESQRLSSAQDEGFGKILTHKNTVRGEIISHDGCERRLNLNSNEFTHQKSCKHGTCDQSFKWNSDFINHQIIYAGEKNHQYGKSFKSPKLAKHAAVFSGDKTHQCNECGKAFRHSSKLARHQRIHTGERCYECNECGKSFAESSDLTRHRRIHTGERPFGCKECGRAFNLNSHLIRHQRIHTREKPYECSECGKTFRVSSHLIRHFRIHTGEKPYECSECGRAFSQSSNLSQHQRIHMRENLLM
B3: 2'-5'-oligoadenylate synthase 1 (Homo sapiens), P00973-2 (parent)
chain: MMDLRNTPAKSLDKFIEDYLLPDTCFRMQINHAIDIICGFLKERCFRGSSYPVCVSKVVKGGSSGKGTTLRGRSDADLVVFLSPLTTFQDQLNRRGEFIQEIRRQLEACQRERAFSVKFEVQAPRWGNPRALSFVLSSLQLGEGVEFDVLPAFDALGQLTGGYKPNPQIYVKLIEECTDLQKEGEFSTCFTELQRDFLKQRPTKLKSLIRLVKHWYQNCKKKLGKLPPQYALELLTVYAWERGSMKTHFNTAQGFRTVLELVINYQQLCIYWTKYYDFKNPIIEKYLRRQLTKPRPVILDPADPTGNLGGGDPKGWRQLAQEAEAWLNYPCFKNWDGSPVSSWILLVRPPASSLPFIPAPLHEA
partner: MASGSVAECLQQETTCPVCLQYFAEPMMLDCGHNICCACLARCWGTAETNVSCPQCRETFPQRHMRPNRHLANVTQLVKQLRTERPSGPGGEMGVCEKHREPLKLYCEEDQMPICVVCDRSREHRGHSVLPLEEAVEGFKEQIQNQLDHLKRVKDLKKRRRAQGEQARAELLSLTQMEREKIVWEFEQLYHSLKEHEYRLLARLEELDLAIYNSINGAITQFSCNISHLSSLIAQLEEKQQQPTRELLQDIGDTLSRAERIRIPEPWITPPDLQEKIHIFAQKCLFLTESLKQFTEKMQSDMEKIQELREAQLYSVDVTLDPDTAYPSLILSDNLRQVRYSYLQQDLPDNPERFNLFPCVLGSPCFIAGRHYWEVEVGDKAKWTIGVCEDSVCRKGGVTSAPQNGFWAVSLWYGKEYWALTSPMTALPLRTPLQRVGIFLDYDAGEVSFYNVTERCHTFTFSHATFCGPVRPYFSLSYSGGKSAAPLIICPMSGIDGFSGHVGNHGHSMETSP
B4: Neutrophil cytosol factor 2 (Homo sapiens), P19878 (parent)
chain: MSLVEAISLWNEGVLAADKKDWKGALDAFSAVQDPHSRICFNIGCMYTILKNMTEAEKAFTRSINRDKHLAVAYFQRGMLYYQTEKYDLAIKDLKEALIQLRGNQLIDYKILGLQFKLFACEVLYNIAFMYAKKEEWKKAEEQLALATSMKSEPRHSKIDKAMECVWKQKLYEPVVIPVGKLFRPNERQVAQLAKKDYLGKATVVASVVDQDSFSGFAPLQPQAAEPPPRPKTPEIFRALEGEAHRVLFGFVPETKEELQVMPGNIVFVLKKGNDNWATVMFNGQKGLVPCNYLEPVELRIHPQQQPQEESSPQSDIPAPPSSKAPGRPQLSPGQKQKEEPKEVKLSVPMPYTLKVHYKYTVVMKTQPGLPYSQVRDMVSKKLELRLEHTKLSYRPRDSNELVPLSEDSMKDAWGQVKNYCLTLWCENTVGDQGFPDEPKESEKADANNQTTEPQLKKGSQVEALFSYEATQPEDLEFQEGDIILVLSKVNEEWLEGECKGKVGIFPKVFVEDCATTDLESTRREV
B5: U4/U6 small nuclear ribonucleoprotein Prp31 (Homo sapiens), Q8WWY3 (parent)
chain: MSLADELLADLEEAAEEEEGGSYGEEEEEPAIEDVQEETQLDLSGDSVKTIAKLWDSKMFAEIMMKIEEYISKQAKASEVMGPVEAAPEYRVIVDANNLTVEIENELNIIHKFIRDKYSKRFPELESLVPNALDYIRTVKELGNSLDKCKNNENLQQILTNATIMVVSVTASTTQGQQLSEEELERLEEACDMALELNASKHRIYEYVESRMSFIAPNLSIIIGASTAAKIMGVAGGLTNLSKMPACNIMLLGAQRKTLSGFSSTSVLPHTGYIYHSDIVQSLPPDLRRKAARLVAAKCTLAARVDSFHESTEGKVGYELKDEIERKFDKWQEPPPVKQVKPLPAPLDGQRKKRGGRRYRKMKERLGLTEIRKQANRMSFGEIEEDAYQEDLGFSLGHLGKSGSGRVRQTQVNEATKARISKTLQRTLQKQSVVYGGKSTIRDRSSGTASSVAFTPLQGLEIVNPQAAEKKVAEANQKYFSSMAEFLKVKGEKSGLMST
partner: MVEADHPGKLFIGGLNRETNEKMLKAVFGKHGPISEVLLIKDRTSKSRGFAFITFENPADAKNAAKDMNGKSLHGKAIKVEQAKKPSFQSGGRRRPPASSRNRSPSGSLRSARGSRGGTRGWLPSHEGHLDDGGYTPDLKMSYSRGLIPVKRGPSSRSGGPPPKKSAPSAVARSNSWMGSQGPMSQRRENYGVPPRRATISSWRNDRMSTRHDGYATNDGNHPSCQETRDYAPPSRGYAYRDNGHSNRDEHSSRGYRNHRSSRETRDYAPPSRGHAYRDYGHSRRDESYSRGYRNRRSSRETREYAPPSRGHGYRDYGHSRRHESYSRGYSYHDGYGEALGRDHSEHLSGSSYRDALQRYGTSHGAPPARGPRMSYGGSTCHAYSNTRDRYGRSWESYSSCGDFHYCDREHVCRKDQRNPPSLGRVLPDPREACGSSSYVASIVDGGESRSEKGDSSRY
B6: ATP synthase mitochondrial F1 complex assembly factor 2 (Homo sapiens), Q8N5M1 (parent)
chain: MWRSCLRLRDGGRRLLNRPAGGPSASMSPGPTIPSPARAYAPPTERKRFYQNVSITQGEGGFEINLDHRKLKTPQAKLFTVPSEALAIAVATEWDSQQDTIKYYTMHLTTLCNTSLDNPTQRNKDQLIRAAVKFLDTDTICYRVEEPETLVELQRNEWDPIIEWAEKRYGVEISSSTSIMGPSIPAKTREVLVSHLASYNTWALQGIEFVAAQLKSMVLTLGLIDLRLTVEQAVLLSRLEEEYQIQKWGNIEWAHDYELQELRARTAAGTLFIHLCSESTTVKHKLLKE
partner: B3 partner

In the first assay the parent is B1. The settings on record: with bhe40_human BHLHE40, O14503.
Chain of bhe40_human BHLHE40, O14503 (O14503 whole entry): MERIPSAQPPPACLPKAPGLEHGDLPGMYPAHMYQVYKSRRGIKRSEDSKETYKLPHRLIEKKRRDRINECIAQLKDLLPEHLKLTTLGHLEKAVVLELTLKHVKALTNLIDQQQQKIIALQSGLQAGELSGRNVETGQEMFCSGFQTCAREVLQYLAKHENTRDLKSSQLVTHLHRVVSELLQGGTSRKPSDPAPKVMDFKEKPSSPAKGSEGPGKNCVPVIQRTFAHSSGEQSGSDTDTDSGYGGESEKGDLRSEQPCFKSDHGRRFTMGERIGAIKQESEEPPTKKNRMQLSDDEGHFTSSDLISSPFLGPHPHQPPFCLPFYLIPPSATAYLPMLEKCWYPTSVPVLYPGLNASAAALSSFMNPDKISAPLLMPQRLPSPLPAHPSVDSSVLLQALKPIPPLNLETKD
With A129T, the “effect of a mutation on the interaction” value is listed as “disrupting interaction strength”. Still for that read-out and setting: under T3M stands “with no effect”.

The variants in a further assay derive from B1. The settings on record: with mdfi_human MDFI.
A129T: the “effect of a mutation on the interaction” value is listed as “with no effect”. On the same count and under the same terms, under T3M stands “with no effect”.

In another assay the parent is B2. Particulars: with zn165_human ZNF165, P49910.
Consider MDNYADLSDTELTTLLRRYNIPHGPVVGSTRRLYEKKIFEYETQRRRLSPPSSSAASSYSFSDLNSTRGDAVMYDLPKKEDALLYQSKGYNDDYYEESYFTTRTYGEPESAGPSRAVRQSVTSFPDADAFHHQVHDDDLLSSSEEECKDRERPMYGRDSAYQSITHYRPVSASRSSLDLSYYPTSSSTSFMSSSSSSSSWLTRRAIRPENRAPGAGLGQDRQVPLWGQLLLFLVFVIVLFFIYHFMQAEEGNPF [D72V], for which the “effect of a mutation on the interaction” value is listed as “with no effect”. In the case of MDNYADLSDTELTTLLRRYNIPHGPVVGSTRRLYEKKIFEYETQRRRLSPPSSSAASSYSFSDLNSTRGDADMYDLPKKEDALLYQSKGYNDDYYEESYFTTRTYGEPESAGPSRAVRQSVTSFPDADAFHHQVHDDDLLSSSEEECKDRERPMYGRDSAYQSITHYRPVSASRSSLDLSYYTTSSSTSFMSSSSSSSSWLTRRAIRPENRAPGAGLGQDRQVPLWGQLLLFLVFVIVLFFIYHFMQAEEGNPF [P183T], the “effect of a mutation on the interaction” value is listed as “with no effect”.

The variants in a further assay derive from B3. The settings on record: with tri27_human TRIM27, P14373.
For the variant MMDLRNTPAKSLDKFIEDYLLPDTCFRMQINHAIDIICGFLKERCFRGSSYPVCVSKVVKGGSSGKGTTLRGRSDADLVVFLSPLTTFQDQLNRRGEFIQEIRRQLEACQRERAFSVKFEVQAPRWGNPRALSFVLSSLQLGEGVEFDVLPAFDALGQLTGGYKPNPQIYVKLIEECTDLQKEGEFSTCFTELQRDFLKQRPTKLKSLIRLVKHWYQNCKKKLGKLPPQYALELLTVYAWEQGSMKTHFNTAQGFRTVLELVINYQQLCIYWTKYYDFKNPIIEKYLRRQLTKPRPVILDPADPTGNLGGGDPKGWRQLAQEAEAWLNYPCFKNWDGSPVSSWILLVRPPASSLPFIPAPLHEA [R242Q], the “effect of a mutation on the interaction” value is given as “with no effect”.

A further assay covers variants of B4. The settings on record: with goga2_human GOLGA2, Q08379.
Chain of goga2_human GOLGA2, Q08379 (Q08379 whole entry): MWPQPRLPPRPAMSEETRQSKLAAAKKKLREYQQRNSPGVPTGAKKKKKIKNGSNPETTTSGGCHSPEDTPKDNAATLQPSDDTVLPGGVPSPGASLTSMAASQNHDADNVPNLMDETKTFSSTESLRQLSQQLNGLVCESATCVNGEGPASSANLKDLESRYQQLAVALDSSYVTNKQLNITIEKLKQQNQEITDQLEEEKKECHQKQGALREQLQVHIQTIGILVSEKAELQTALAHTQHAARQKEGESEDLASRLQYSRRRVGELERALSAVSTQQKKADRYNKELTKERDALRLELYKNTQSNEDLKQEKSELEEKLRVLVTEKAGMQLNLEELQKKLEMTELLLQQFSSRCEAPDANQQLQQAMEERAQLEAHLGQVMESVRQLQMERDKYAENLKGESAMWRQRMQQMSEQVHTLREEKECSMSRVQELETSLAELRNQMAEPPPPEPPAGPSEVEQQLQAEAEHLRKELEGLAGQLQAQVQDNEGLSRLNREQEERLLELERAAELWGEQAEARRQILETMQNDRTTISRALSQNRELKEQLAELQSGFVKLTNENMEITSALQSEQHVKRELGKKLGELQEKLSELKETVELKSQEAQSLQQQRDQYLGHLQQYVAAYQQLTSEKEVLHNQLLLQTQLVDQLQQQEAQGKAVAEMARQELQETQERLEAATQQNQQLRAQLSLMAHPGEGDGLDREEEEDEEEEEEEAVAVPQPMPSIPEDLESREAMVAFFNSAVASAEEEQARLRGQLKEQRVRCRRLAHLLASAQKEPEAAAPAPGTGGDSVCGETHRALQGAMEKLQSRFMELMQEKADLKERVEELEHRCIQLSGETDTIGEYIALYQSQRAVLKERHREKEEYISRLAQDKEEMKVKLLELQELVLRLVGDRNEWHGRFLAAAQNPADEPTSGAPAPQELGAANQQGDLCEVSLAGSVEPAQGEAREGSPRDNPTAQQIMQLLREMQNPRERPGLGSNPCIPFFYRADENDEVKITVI
On to MSLVEAISLWNEGVLAADKKDWKGALDAFSAVQDPHSRICFNIGCMYTILKNMTEAEKAFTRSINRDKHLAVAYFQRGMLYYQTEKYDLAIKDLKEALIQLRGNQLIDYKILGLQFKLFACEVLYNIAFMYAKKEEWKKAEEQLALATSMKSEPRHSKIDKAMECVWKQKLYEPVVIPVGKLFRPNERQVAQLAKKDYLGKATVVASVVDQDSFSGFAPLQPQAAEPPPRPKTPEIFRALEGEAHRVLFGFVPETKEELQVMPGNIVFVLKKGNDNWATVMFNGQKGLVPCNYLEPVELRIHPQQQPQEESSPQSDIPAPPSSKAPGRPQLSPGQKQKEEPKEVKLSVPMPYTLKVHYKYTVVMKTQPGLPYSQVRDMVSKKLELRLEHTKLSYRPRDSNELVPLSEDSMKDAWGQVKIYCLTLWCENTVGDQGFPDEPKESEKADANNQTTEPQLKKGSQVEALFSYEATQPEDLEFQEGDIILVLSKVNEEWLEGECKGKVGIFPKVFVEDCATTDLESTRREV [N419I], for which the “effect of a mutation on the interaction” value is given as “with no effect”.

In a further assay the parent is B4. Particulars: with kifa3_human KIFAP3, Q92845.
Chain of kifa3_human KIFAP3, Q92845 (Q92845 whole entry): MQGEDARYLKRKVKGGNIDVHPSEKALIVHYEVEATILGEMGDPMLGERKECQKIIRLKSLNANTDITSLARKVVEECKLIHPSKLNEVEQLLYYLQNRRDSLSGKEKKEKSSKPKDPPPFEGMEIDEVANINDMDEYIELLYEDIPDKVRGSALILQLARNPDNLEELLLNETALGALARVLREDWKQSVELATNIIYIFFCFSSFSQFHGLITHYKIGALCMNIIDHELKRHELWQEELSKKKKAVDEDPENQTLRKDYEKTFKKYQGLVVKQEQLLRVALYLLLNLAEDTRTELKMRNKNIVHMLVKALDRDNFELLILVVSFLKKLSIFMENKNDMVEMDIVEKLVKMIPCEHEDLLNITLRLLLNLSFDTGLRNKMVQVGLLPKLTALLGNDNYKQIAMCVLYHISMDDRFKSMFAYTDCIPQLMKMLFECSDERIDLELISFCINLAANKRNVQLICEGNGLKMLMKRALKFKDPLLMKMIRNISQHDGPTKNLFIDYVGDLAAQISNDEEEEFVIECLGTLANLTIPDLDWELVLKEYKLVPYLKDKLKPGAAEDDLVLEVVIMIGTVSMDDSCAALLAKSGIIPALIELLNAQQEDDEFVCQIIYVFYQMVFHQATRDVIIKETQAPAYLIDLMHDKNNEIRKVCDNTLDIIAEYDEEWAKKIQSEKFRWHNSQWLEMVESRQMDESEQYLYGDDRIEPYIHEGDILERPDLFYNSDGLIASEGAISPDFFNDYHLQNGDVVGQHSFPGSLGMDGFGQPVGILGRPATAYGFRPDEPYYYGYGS
In the case of MSLVEAISLWNEGVLAADKKDWKGALDAFSAVQDPHSRICFNIGCMYTILKNMTEAEKAFTRSINRDKHLAVAYFQRGMLYYQTEKYDLAIKDLKEALIQLRGNQLIDYKILGLQFKLFACEVLYNIAFMYAKKEEWKKAEEQLALATSMKSEPRHSKIDKAMECVWKQKLYEPVVIPVGKLFRPNERQVAQLAKKDYLGKATVVASVVDQDSFSGFAPLQPQAAEPPPRPKTPEIFRALEGEAHRVLFGFVPETKEELQVMPGNIVFVLKKGNDNWATVMFNGQKGLVPCNYLEPVELRIHPQQQPQEESSPQSDIPAPPSSKAPGRPQLSPGQKQKEEPKEVKLSVPMPYTLKVHYKYTVVMKTQPGLPYSQVRDMVSKKLELRLEHTKLSYRPRDSNELVPLSEDSMKDAWGQVKIYCLTLWCENTVGDQGFPDEPKESEKADANNQTTEPQLKKGSQVEALFSYEATQPEDLEFQEGDIILVLSKVNEEWLEGECKGKVGIFPKVFVEDCATTDLESTRREV [N419I], the “effect of a mutation on the interaction” value is reported as “with no effect”.

A further assay covers variants of B5. Particulars: with RBMY1A1, P0DJD3-2.
Regarding MSLADELLADLEEAAEEEEGGSYGEEEEEPAIEDVQEETQLDLSGDSVKTIAKLWDSKMFAEIMMKIEEYISKQAKASEVMGPVEAAPEYRVIVDANNLTVEIENEVNIIHKFIRDKYSKRFPELESLVPNALDYIRTVKELGNSLDKCKNNENLQQILTNATIMVVSVTASTTQGQQLSEEELERLEEACDMALELNASKHRIYEYVESRMSFIAPNLSIIIGASTAAKIMGVAGGLTNLSKMPACNIMLLGAQRKTLSGFSSTSVLPHTGYIYHSDIVQSLPPDLRRKAARLVAAKCTLAARVDSFHESTEGKVGYELKDEIERKFDKWQEPPPVKQVKPLPAPLDGQRKKRGGRRYRKMKERLGLTEIRKQANRMSFGEIEEDAYQEDLGFSLGHLGKSGSGRVRQTQVNEATKARISKTLQRTLQKQSVVYGGKSTIRDRSSGTASSVAFTPLQGLEIVNPQAAEKKVAEANQKYFSSMAEFLKVKGEKSGLMST [L107V], the “effect of a mutation on the interaction” value is reported as “with no effect”.

In another assay the parent is B6. Particulars: with tri27_human TRIM27, P14373.
With MWRSCLRLRDGGRRLLNRPAGGPSASMSPGPTIPSPARAYAPPTERKRFYQNVSITQGEGGFEINLDHRKLKTPQAKLFTVPSEALAIAVATERDSQQDTIKYYTMHLTTLCNTSLDNPTQRNKDQLIRAAVKFLDTDTICYRVEEPETLVELQRNEWDPIIEWAEKRYGVEISSSTSIMGPSIPAKTREVLVSHLASYNTWALQGIEFVAAQLKSMVLTLGLIDLRLTVEQAVLLSRLEEEYQIQKWGNIEWAHDYELQELRARTAAGTLFIHLCSESTTVKHKLLKE [W94R], the “effect of a mutation on the interaction” value is listed as “disrupting interaction strength”.

(Values after IntAct's records for PubMed 25910212.)
